Assay results as given in patent US20200157212A1 (Pfizer, published 2020).
Numbering of substitutions follows the chain as printed.

T1: Human ROBO2 overexpressed on HEK293 cells (human, UniProt Q9HCK4 22-1378)
T1 construct: also called ROBO2 cells; native ROBO2
T1 sequence: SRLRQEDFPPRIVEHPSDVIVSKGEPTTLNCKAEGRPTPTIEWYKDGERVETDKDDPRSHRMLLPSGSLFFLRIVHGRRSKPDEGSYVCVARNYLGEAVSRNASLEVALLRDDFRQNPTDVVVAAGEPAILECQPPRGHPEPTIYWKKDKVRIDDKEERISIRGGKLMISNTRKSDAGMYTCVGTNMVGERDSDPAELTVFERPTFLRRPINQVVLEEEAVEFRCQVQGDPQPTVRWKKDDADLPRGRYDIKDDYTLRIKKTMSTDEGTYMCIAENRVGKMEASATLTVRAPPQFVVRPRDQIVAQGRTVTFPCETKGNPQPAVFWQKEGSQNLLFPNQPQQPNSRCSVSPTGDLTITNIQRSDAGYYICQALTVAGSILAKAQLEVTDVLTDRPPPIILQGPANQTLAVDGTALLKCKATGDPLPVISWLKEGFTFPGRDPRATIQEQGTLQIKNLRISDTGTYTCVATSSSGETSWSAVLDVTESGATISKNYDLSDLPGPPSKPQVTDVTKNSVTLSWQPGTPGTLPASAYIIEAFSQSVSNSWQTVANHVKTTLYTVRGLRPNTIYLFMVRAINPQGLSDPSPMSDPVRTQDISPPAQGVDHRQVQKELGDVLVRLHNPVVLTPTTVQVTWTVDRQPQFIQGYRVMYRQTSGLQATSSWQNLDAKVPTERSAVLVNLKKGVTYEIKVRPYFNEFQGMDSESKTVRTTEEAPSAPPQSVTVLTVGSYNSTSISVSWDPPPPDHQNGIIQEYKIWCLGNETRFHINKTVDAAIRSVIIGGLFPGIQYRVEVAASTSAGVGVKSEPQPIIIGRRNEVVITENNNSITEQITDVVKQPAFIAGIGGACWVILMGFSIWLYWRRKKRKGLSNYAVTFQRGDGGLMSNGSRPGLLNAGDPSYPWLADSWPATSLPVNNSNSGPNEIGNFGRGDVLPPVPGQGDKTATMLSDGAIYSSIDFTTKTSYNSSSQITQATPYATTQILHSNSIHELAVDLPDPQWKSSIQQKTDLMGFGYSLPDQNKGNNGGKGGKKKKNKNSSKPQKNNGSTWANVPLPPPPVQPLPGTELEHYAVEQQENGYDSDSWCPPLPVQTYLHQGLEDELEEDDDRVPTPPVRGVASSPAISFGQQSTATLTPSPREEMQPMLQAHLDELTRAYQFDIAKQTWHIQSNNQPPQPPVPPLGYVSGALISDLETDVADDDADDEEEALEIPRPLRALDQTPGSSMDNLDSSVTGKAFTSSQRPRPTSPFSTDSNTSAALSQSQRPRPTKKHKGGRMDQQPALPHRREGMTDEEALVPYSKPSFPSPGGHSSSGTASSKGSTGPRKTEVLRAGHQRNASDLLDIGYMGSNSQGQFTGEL

B1: 93H2 (antibody, human IgG1, kappa, V domains shown)
VH: EVQLVQSGAEVKKPGASVKVSCKASGYTFTGYYMHWVRQAPGQGLEWMGWINPNSGATNFPQKFQGRVTMTRDTSITTAYMDLSRLRSDDTAVYYCARESGDDAFDIWGQGTMVTVSS
VL: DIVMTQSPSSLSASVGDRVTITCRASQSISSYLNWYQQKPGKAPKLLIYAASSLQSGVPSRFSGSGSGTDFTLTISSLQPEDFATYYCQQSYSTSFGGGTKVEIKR
notes: also called parental 93H2; 93H2 mAb
B2: Abcs35 (antibody, human IgG1, kappa)
heavy: EVQLVQSGAEVKKPGASVKVSCKASGYTFTGYYMHWVRQAPGQGLEWMGWINPKNGDTEFPQKFQGRVTMTRDTSITTAYMDLSRLRSDDTAVYYCARESGDDAFDIWGQGTMVTVSSASTKGPSVFPLAPSSKSTSGGTAALGCLVKDYFPEPVTVSWNSGALTSGVHTFPAVLQSSGLYSLSSVVTVPSSSLGTQTYICNVNHKPSNTKVDKKVEPKSCDKTHTCPPCPAPEAAGAPSVFLFPPKPKDTLMISRTPEVTCVVVDVSHEDPEVKFNWYVDGVEVHNAKTKPREEQYNSTYRVVSVLTVLHQDWLNGKEYKCKVSNKALPAPIEKTISKAKGQPREPQVYTLPPSREEMTKNQVSLTCLVKGFYPSDIAVEWESNGQPENNYKTTPPVLDSDGSFFLYSKLTVDKSRWQQGNVFSCSVMHEALHNHYTQKSLSLSPGK
light: DIVMTQSPSSLSASVGDRVTITCRASQSISSYLNWYQQKPGKAPKLLIYAASSLQSGVPSRFSGSGSGTDFTLTISSLQPEDFATYYCQQSVGLFFGGGTKVEIKRTVAAPSVFIFPPSDEQLKSGTASVVCLLNNFYPREAKVQWKVDNALQSGNSQESVTEQDSKDSTYSLSSTLTLSKADYEKHKVYACEVTHQGLSSPVTKSFNRGEC
notes: fully human IgG1; VH of Ab96 with VL of Ab123
B3: Abcs25 (antibody, human IgG1, kappa, V domains shown)
VH: B1 VH with N54K, S55D, A57D, N59E
VL: DIVMTQSPSSLSASVGDRVTITCRASQSISSYLNWYQQKPGKAPKLLIYAASSLQSGVPSRFSGSGSGTDFTLTISSLQPEDFATYYCQQSVGLSFGGGTKVEIKR
notes: chain-shuffled IgG

Tests used:
[1] = target: T1, Human ROBO2 overexpressed on HEK293 …; assay: flow cytometry, HEK293 cells overexpressing human ROBO2
Protocol: (§1) Binding of the antibodies was detected using a secondary fluorochrome conjugated anti-human IgG F(ab′)₂ antibody and samples were analyzed on a Fortessa cytometer (BD Biosciences). The fold ROBO2 selectivity was calculated as the geometric mean fluorescence intensity (Geo MFI) with ROBO2 cells/Geo MFI with ROBO1 cells. A fold change higher than 3 was considered to be ROBO2 specific (Table 2, Fold Selectivity). Some affinity matured clones had increased ROBO1 reactivity, for example Abcs 55, CTI-R2-10 and CTIR2-13.
(§2) Based upon several criteria, Abcs25 and Abcs35 were selected for further characterization. Using flow cytometry, improvement in the binding EC₅₀ to human ROBO2 relative to the parental 93H2 was evaluated. Starting at 6.7 nM, 11-point, 3-fold dilution series were made for each antibody and used to stain HEK293 overexpressing human ROBO2 as described above for the ROBO2 fold selectivity (Example 2). […] In addition to measuring improved binding to human ROBO2, it was important to ensure that high affinity binding to both cynomolgus monkey ROBO2 and rat ROBO2 was maintained. Using HEK293 cells overexpressing either cynomolgus monkey ROBO2 or rat ROBO2, the relative dose-dependent binding of 93H2, Abcs25 and Abcs35 was evaluated as described above. High affinity binding to both cynomolgus monkey and rat ROBO2 was maintained in Abcs25 and Abcs35 (Table 4). […] Briefly, Abcs35 was immobilized to 300 resonance units (RU) on a CM5 chip. Association of ROBO2 Ig1-Ig2-His (ROBO2) was measured over 5 minutes and dissociation was followed for a period of 10 minutes.

[2] = target: T1, Human ROBO2 overexpressed on HEK293 …; assay: flow cytometry, HEK293 cells, average of n = 5
Protocol: as §1, §2

[3] = target: T2, Human ROBO1 RSK mutant overexpressed on HEK293 cells (human, UniProt Q9Y6N7 26-1651); assay: flow cytometry, HEK293 ROBO1-RSK cells
T2 construct: K137R and R139K already in the entry; also called ROBO1-RSK cells
T2 sequence (Q9Y6N7 other isoform, or with tags, fused parts or gaps mutant limits assumed): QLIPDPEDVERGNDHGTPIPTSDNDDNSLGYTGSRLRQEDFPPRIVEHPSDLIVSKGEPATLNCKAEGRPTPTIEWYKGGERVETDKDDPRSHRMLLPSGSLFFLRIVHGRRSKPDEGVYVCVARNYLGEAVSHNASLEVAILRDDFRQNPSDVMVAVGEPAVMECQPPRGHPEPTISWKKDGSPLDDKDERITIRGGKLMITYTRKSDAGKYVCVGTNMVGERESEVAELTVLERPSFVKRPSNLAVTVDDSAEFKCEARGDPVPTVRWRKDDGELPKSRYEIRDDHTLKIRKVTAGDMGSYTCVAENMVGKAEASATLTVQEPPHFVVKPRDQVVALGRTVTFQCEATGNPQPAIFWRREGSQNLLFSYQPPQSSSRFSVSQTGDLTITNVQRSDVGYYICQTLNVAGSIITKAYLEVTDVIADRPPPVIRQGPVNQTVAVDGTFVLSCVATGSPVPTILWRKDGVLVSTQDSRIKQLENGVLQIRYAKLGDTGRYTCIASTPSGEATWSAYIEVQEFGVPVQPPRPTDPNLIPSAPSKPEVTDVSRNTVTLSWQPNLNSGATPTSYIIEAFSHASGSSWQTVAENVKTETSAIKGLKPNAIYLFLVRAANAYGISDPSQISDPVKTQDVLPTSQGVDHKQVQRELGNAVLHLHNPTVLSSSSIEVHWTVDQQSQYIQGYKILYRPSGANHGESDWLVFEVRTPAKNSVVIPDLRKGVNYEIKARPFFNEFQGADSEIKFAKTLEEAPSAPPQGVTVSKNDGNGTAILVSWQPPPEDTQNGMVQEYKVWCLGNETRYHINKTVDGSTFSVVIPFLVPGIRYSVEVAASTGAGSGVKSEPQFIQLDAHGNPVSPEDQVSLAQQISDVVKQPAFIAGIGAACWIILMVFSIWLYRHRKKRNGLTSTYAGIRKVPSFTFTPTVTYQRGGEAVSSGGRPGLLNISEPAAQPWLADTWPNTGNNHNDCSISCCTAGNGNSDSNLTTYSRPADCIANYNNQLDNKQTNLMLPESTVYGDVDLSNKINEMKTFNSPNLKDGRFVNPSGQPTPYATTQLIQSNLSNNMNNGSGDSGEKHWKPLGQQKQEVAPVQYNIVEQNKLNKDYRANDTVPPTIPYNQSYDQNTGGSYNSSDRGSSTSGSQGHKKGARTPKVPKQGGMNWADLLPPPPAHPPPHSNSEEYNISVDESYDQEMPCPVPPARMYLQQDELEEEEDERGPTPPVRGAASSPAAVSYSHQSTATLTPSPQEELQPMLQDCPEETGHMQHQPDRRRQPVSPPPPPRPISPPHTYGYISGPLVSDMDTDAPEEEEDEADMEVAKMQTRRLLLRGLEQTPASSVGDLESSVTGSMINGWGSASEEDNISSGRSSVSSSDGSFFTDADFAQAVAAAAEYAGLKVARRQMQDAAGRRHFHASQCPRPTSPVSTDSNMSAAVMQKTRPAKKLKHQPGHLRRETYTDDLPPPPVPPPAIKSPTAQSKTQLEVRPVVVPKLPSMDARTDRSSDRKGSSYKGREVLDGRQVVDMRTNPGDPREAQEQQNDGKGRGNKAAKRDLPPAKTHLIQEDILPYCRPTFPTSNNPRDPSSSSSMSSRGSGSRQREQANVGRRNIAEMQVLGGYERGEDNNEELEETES
Protocol: as §1, §2
RSK specificity for Abcs35, along with 93H2 and Abcs25, also was confirmed in a cell-based binding assay using flow cytometry. HEK293 cells overexpressing ROBO2 containing the KSR sequence from ROBO1 (ROBO2-KSR) or ROBO1 containing the RSK sequence from ROBO2 (ROBO1-RSK) were generated. As described above in Example 3, dose-dependent binding was evaluated.

Binder | EC50 [1] | EC50 [2] | EC50 [3]
B1 | 0.133 nM | 0.133 nM | 0.37 nM
B2 | 0.055 nM | 0.082 nM | 0.074 nM
B3 | 0.056 nM | 0.068 nM | 0.061 nM
